The values below come from patent publication US20220275417A1 (BARCODEBODY, published 2022).

In general, Kd refers to a measure of binding affinity in units of concentration. The term koff denotes the rate constant with which the complex falls apart. Usually kon stands for a measure of how fast the partners come together.

Test [1] has as its target T1, recombinant human sCD4 CF (manufactured by R&D Systems) (human, UniProt P01730 26-390, limits assumed).
T1 construct: Immobilized on the Biacore sensor chip; also called recombinant CD4; CD4 antigen
In words: SPR, Biacore T-200, CD4 immobilized on chip, as in Example 2.

The target of test [2] is T1, recombinant human sCD4 CF (manufactured …). In words: SPR, Biacore T-200, antigen immobilized on chip, nanobody as analyte.
Test [3] has the same target. In words: simultaneous binding assay on CD4-immobilized magnetic beads, barcode cleaved by enterokinase and quantified by LC-MS/MS.
In test [4] the target is T2, CD4 on the surface of HEK293 cells transfected with pCAGGS-CD4-myc (UniProt P01730 26-458, limits assumed).
T2 construct: whole, on cells; Cells were fixed with 4% paraformaldehyde before staining; also called CD4 surface expressing cells
Put plainly: immunofluorescence staining of fixed CD4-expressing HEK293 cells, anti-FLAG-AF488 secondary.

B1: anti-CD4-FLAG (VHH)
VHH: EVQLVESGGGSVQPGGSLTLSCGTSGRTFNVMGWFRQAPGKEREFVAAVRWSSTGIYYTQYADSVKSRFTISRDNAKNTVYLEMNSLKPEDTAVYYCAADTYNSNPARWDGYDFRGQGTQVTVSS
notes: Secreted from Pichia pastoris with the alpha-factor signal, which is cleaved during secretion; also called Anri-CD4-FLAG; anti-CD4 nanobody with no barcode
As for B1, in test [1], the Kd worked out at 26 nM, the koff was 0.0037 s⁻¹ and the kon amounted to 140000 M⁻¹ s⁻¹. For the same molecule, in test [2], the Kd came to 42 nM, the koff turned out to be 0.0054 s⁻¹ and the kon was 68000 M⁻¹ s⁻¹.

B2: anti-CD4 with barcode 4-4 (VHH)
VHH: EVQLVESGGGSVQPGGSLTLSCGTSGRTFNVMGWFRQAPGKEREFVAAVRWSSTGIYYTQYADSVKSRFTISRDNAKNTVYLEMNSLKPEDTAVYYCAADTYNSNPARWDGYDFRGQGTQVTVSS
notes: secreted from Pichia pastoris
Turning to B2, in test [1], the Kd amounted to 25 nM, the koff turned out to be 0.0029 s⁻¹ and the kon is 120000 M⁻¹ s⁻¹.

B3: anti-CD4 with barcode 4-1 (VHH)
VHH: EVQLVESGGGSVQPGGSLTLSCGTSGRTFNVMGWFRQAPGKEREFVAAVRWSSTGIYYTQYADSVKSRFTISRDNAKNTVYLEMNSLKPEDTAVYYCAADTYNSNPARWDGYDFRGQGTQVTVSS
notes: secreted from Pichia pastoris
Take B3: in test [1], the Kd was 21 nM, the koff came to 0.003 s⁻¹ and the kon was found to be 140000 M⁻¹ s⁻¹.

B4: anti-CD4-FLAG-barcode 1 (VHH)
VHH: EVQLVESGGGSVQPGGSLTLSCGTSGRTFNVMGWFRQAPGKEREFVAAVRWSSTGIYYTQYADSVKSRFTISRDNAKNTVYLEMNSLKPEDTAVYYCAADTYNSNPARWDGYDFRGQGTQVTVSS
notes: Secreted from Pichia pastoris with the alpha-factor signal, which is cleaved during secretion; also called anti-CD4 nanobody
Turning to B4, in test [2], the Kd came out at 52 nM, the koff stood at 0.004 s⁻¹ and the kon stood at 77000 M⁻¹ s⁻¹.

B5: anti-CD4 with barcode 4-3 (VHH)
VHH: EVQLVESGGGSVQPGGSLTLSCGTSGRTFNVMGWFRQAPGKEREFVAAVRWSSTGIYYTQYADSVKSRFTISRDNAKNTVYLEMNSLKPEDTAVYYCAADTYNSNPARWDGYDFRGQGTQVTVSS
notes: secreted from Pichia pastoris
On to B5, for which, in test [1], the Kd worked out at 26 nM, the koff was determined as 0.0036 s⁻¹ and the kon is 140000 M⁻¹ s⁻¹.

B6: anti-CD4 with barcode 4-2 (VHH)
VHH: EVQLVESGGGSVQPGGSLTLSCGTSGRTFNVMGWFRQAPGKEREFVAAVRWSSTGIYYTQYADSVKSRFTISRDNAKNTVYLEMNSLKPEDTAVYYCAADTYNSNPARWDGYDFRGQGTQVTVSS
notes: secreted from Pichia pastoris
Turning to B6, in test [1], the Kd amounted to 28 nM, the off-rate constant (koff) worked out at 0.0028 s⁻¹ and the kon is 100000 M⁻¹ s⁻¹.

B7: anti-CD4 with barcode 4-7 (VHH)
VHH: EVQLVESGGGSVQPGGSLTLSCGTSGRTFNVMGWFRQAPGKEREFVAAVRWSSTGIYYTQYADSVKSRFTISRDNAKNTVYLEMNSLKPEDTAVYYCAADTYNSNPARWDGYDFRGQGTQVTVSS
notes: secreted from Pichia pastoris
With B7, in test [1], the dissociation constant (Kd) stood at 24 nM, the koff came out at 0.0028 s⁻¹ and the kon came to 110000 M⁻¹ s⁻¹.

B8: anti-CD4 with barcode 4-5 (VHH)
VHH: EVQLVESGGGSVQPGGSLTLSCGTSGRTFNVMGWFRQAPGKEREFVAAVRWSSTGIYYTQYADSVKSRFTISRDNAKNTVYLEMNSLKPEDTAVYYCAADTYNSNPARWDGYDFRGQGTQVTVSS
notes: secreted from Pichia pastoris
With B8, in test [1], the equilibrium dissociation constant (Kd) came out at 24 nM, the koff was determined as 0.0028 s⁻¹ and the kon came to 180000 M⁻¹ s⁻¹.

B9: anti-CD4 with barcode 4-8 (VHH)
VHH: EVQLVESGGGSVQPGGSLTLSCGTSGRTFNVMGWFRQAPGKEREFVAAVRWSSTGIYYTQYADSVKSRFTISRDNAKNTVYLEMNSLKPEDTAVYYCAADTYNSNPARWDGYDFRGQGTQVTVSS
notes: secreted from Pichia pastoris
Turning to B9, in test [1], the Kd is 19 nM, the koff came to 0.0029 s⁻¹ and the kon was determined as 160000 M⁻¹ s⁻¹.

B10: anti-CD4 with barcode 4-6 (VHH)
VHH: EVQLVESGGGSVQPGGSLTLSCGTSGRTFNVMGWFRQAPGKEREFVAAVRWSSTGIYYTQYADSVKSRFTISRDNAKNTVYLEMNSLKPEDTAVYYCAADTYNSNPARWDGYDFRGQGTQVTVSS
notes: secreted from Pichia pastoris
In the case of B10, in test [1], the Kd turned out to be 28 nM, the koff came to 0.0033 s⁻¹ and the kon came out at 120000 M⁻¹ s⁻¹.

B11: anti-GFP-FLAG-barcode 2 (VHH)
VHH: QVQLVESGGALVQPGGSLRLSCAASGFPVNRYSMRWYRQAPGKEREWVAGMSSAGDRSSYEDSVKGRFTISRDDARNTVYLQMNSLKPEDTAVYYCNVNVGFEYWGQGTQVTVSS
notes: also called anti-GFP nanobody
In the case of B11, the binding result in test [3] was “no binding (tested: 0.1 µM)”; in test [4], “no binding (tested: 3.3 µg/ml)”.
